Data published in FireProtDB (doi:10.1093/protein/7.6.777).

Conditions: Hordeum vulgare, whole UniProt chain shown
[1] = pH 3, Thermal, DSC, glycine-HCl 10 mM
[2] = pH 6.25, 25 °C, GdnHCl, Fluorescence, MES 50 mM

B1: Subtilisin-chymotrypsin inhibitor-2A wild type, P01053 (protein)
chain: MSSVEKKPEGVNTGAGDRHNLKTEWPELVGKSVEEAKKVILQDKPEAQIIVLPVGTIVTMEYRIDRVRLFVDKLDNIAQVPRVG
- Tm [1]: 63.8 °C
- unfolding enthalpy (calorimetric) [1]: 251 kJ/mol
- denaturant m value [2]: 1.9 kcal/mol/M
- denaturant midpoint (higher = more stable) [2]: 4 M
- unfolding free energy [2]: 31.8 kJ/mol
